Source: US20180134765A1 (AVIDBIOTICS, published 2018)

What was measured:
human NKG2D-Fc = molecular target: T1, human NKG2D-Fc (human, UniProt P26718 78-216, limits assumed); assay: ELISA: protein captured on FGFR3 detected with NKG2D-Fc
T1 construct: also called natural NKG2D-Fc; not shown: Fc part
T1 sequence (looked up): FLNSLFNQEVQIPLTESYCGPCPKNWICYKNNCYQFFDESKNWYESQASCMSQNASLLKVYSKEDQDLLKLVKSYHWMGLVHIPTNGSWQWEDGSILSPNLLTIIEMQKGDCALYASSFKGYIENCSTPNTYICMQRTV

NKG2D on NKL cells = molecular target: T2, NKG2D on NKL cells (human, UniProt P26718 1-216); assay: cell-based or functional assay
T2 sequence (looked up): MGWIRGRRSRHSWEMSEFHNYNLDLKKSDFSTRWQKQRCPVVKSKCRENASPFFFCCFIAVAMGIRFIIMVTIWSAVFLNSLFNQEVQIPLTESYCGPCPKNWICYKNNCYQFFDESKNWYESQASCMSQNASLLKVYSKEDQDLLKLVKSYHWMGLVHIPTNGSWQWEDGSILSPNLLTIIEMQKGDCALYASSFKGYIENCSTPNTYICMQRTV

His-avitag-natural NKG2D [1] = molecular target: T3, His-avitag-natural NKG2D (human, biotin on the avitag sequence (BirA)); assay: biolayer interferometry (Octet), biotinylated natural NKG2D ectodomain on the surface, 100 nM fusion protein
T3 construct: also called natural NKG2D ectodomain; wild type NKG2D
T3 chain: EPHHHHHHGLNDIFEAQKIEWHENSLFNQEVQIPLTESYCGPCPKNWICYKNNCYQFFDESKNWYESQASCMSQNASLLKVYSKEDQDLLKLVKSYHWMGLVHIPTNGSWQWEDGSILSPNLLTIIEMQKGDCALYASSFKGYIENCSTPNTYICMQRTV

His-avitag-natural NKG2D [2] = molecular target: T3, His-avitag-natural NKG2D; assay: biolayer interferometry (Octet), biotinylated natural NKG2D ectodomain on the surface, 100 nM fusion protein; run B

B1: ULBP4-α3-iFv.2 (designed binder)
chain: EPHSLCFNFTIKSLSRPGQPWCEAQVFLNKNLFLQYNSDNNMVKPLGLLGKKVYATSTWGELTQTLGEVGRDLRMLLCDIKPQIKTSDPSTLQVEMFCQREAERCTGASWQFATNGEKSLLFDAMNMTWTVINHEASKIKETWKKDRGLEKYFRKLSKGDCDHWLREFLGHWEAMPEPTVSPPMVQVTRSEASGGSGDRVTITCRASQDVSTAVAWYQQKPGKAPKLLIYSASFLYSGVPSRFSGSGSGTDFTLTISSLQPEDFATYYCQQSYTTPPTFGQGTKVEIKGGSSRSSSSGGGGSGGGGEVQLVESGGGLVQPGGSLRLSCAASGFTFTSTGISWVRQAPGKGLEWVGRIYPTNGSTNYADSVKGRFTISADTSKNTAYLQMNSLRAEDTAVYYCARTYGIYDLYVDYTEYVMDYWGQGTLVTVSSGGSSRSSSSGGGGSGGGGDIQMTQSPSSLSASGGSGQITVTCRASGFYPWNITLSWRQDGVSLSHDTQQWGDVLPDGQGTYQTWVATRISQGEEQRFTCYMEHSGQHSTHPVPSGKGSHHHHHH
notes: His-tagged, monomeric, insect cells; also called NKG2DL-α3-iFv.2 (ULBP4)
binding result (human NKG2D-Fc): binds

B2: ULBP6-α3-iFv.2 (designed binder)
chain: EPHSLCYDITVIPKFRPGPRWCAVQGQVDEKTFLHYDCGNKTVTPVSPLGKKLNVTTAWKAQNPVLREVVDILTEQLLDIQLENYTPKEPLTLQARMSCEQKAEGHSSGSWQFSIDGQTFLLFDSEKRMWTTVHPGARKMKEKWENDKDVAMSFHYISMGDCIGWLEDFLMGMDSTLEPSAGAPPMVQVTRSEASGGSGDRVTITCRASQDVSTAVAWYQQKPGKAPKLLIYSASFLYSGVPSRFSGSGSGTDFTLTISSLQPEDFATYYCQQSYTTPPTFGQGTKVEIKGGSSRSSSSGGGGSGGGGEVQLVESGGGLVQPGGSLRLSCAASGFTFTSTGISWVRQAPGKGLEWVGRIYPTNGSTNYADSVKGRFTISADTSKNTAYLQMNSLRAEDTAVYYCARTYGIYDLYVDYTEYVMDYWGQGTLVTVSSGGSSRSSSSGGGGSGGGGDIQMTQSPSSLSASGGSGQITVTCRASGFYPWNITLSWRQDGVSLSHDTQQWGDVLPDGQGTYQTWVATRISQGEEQRFTCYMEHSGQHSTHPVPSGKGSHHHHHH
notes: His-tagged, monomeric, insect cells; also called NKG2DL-α3-iFv.2 (ULBP6)
binding result (human NKG2D-Fc): binds

B3: ULBP1-α3-iFv.2 (designed binder)
chain: EPHCLCYDFIITPKSRPEPQWCEVQGLVDERPFLHYDCVNHKAKAFASLGKKVNVTKTWEEQTETLRDVVDFLKGQLLDIQVENLIPIEPLTLQARMSCEHEAHGHGRGSWQFLFNGQKFLLFDSNNRKWTALHPGAKKMTEKWEKNRDVTMFFQKISLGDCKMWLEEFLMYWEQMLDPTKPPMVQVTRSEASGGSGDRVTITCRASQDVSTAVAWYQQKPGKAPKLLIYSASFLYSGVPSRFSGSGSGTDFTLTISSLQPEDFATYYCQQSYTTPPTFGQGTKVEIKGGSSRSSSSGGGGSGGGGEVQLVESGGGLVQPGGSLRLSCAASGFTFTSTGISWVRQAPGKGLEWVGRIYPTNGSTNYADSVKGRFTISADTSKNTAYLQMNSLRAEDTAVYYCARTYGIYDLYVDYTEYVMDYWGQGTLVTVSSGGSSRSSSSGGGGSGGGGDIQMTQSPSSLSASGGSGQITVTCRASGFYPWNITLSWRQDGVSLSHDTQQWGDVLPDGQGTYQTWVATRISQGEEQRFTCYMEHSGQHSTHPVPSGKGSHHHHHH
notes: His-tagged, monomeric, insect cells; also called NKG2DL-α3-iFv.2 (ULBP1)
binding result (human NKG2D-Fc): binds

B4: α1-α2 variant 16 (ligand)
chain: EPHSLRYNLTVLSWDGSVQSGFLTEVHLDGQPFLRCDRQKCRAKPQGQWAEDVLGNKTWDRETRDLTGWGKDLRMTLAHIKDQKEGLHSLQEIRVCEIHEDNSTRSSQHFYYDGELFLSQNLETLEWTMPQSSRAQTLAMNVRNFLKEDAMETDTHYHAMRADCLQELRRYLKSGVVLRRTVPPMVQVTRSEASGGSGDRVTITCRASQDVSTAVAWYQQKPGKAPKLLIYSASFLYSGVPSRFSGSGSGTDFTLTISSLQPEDFATYYCQQSYTTPPTFGQGTKVEIKGGSSRSSSSGGGGSGGGGEVQLVESGGGLVQPGGSLRLSCAASGFTFTSTGISWVRQAPGKGLEWVGRIYPTNGSTNYADSVKGRFTISADTSKNTAYLQMNSLRAEDTAVYYCARTYGIYDLYVDYTEYVMDYWGQGTLVTVSSGGSSRSSSSGGGGSGGGGDIQMTQSPSSLSASGGSGQITVTCRASGFYPWNITLSWRQDGVSLSHDTQQWGDVLPDGQGTYQTWVATRISQGEEQRFTCYMEHSGQHSTHPVPSGKGSHHHHHH
NK cell-mediated lysis of FGFR3-expressing P815 target cells (calcein release, NKL cells) (NKG2D on NKL cells): ~15 fold more killing than WT at 0.78 nM

B5: MICv49-Fv (designed binder)
chain: EPHSLRYNLTVLSWDGSVQTGFLTEVHLDGQPFLRCDRQKCRAKPQGQWAEDVLGNKTWDRETRDLTQWGKDLRMTLAHIKDQKEGLHSLQEIRVCEIHEDNSTRSSQHFYYDGELFLSQNLETKEWTMPQSSRAQTLAMNVRNFLKEDAMFTDTHYRAMTADCLTELRRYLKSGVVLRRTVPPMVQVTRSEASGGSGDRVTITCRASQDVSTAVAWYQQKPGKAPKLLIYSASFLYSGVPSRFSGSGSGTDFTLTISSLQPEDFATYYCQQSYTTPPTFGQGTKVEIKGGSSRSSSSGGGGSGGGGEVQLVESGGGLVQPGGSLRLSCAASGFTFTSTGISWVRQAPGKGLEWVGRIYPTNGSTNYADSVKGRFTISADTSKNTAYLQMNSLRAEDTAVYYCARTYGIYDLYVDYTEYVMDYWGQGTLVTVSSGGSSRSSSSGGGGSGGGGDIQMTQSPSSLSASGGSGQITVTCRASGFYPWNITLSWRQDGVSLSHDTQQWGDVLPDGQGTYQTWVATRISQGEEQRFTCYMEHSGQHSTHPVPSGKGSHHHHHH
notes: His-tagged α1-α2-α3-Fv fusion; also called DSM49 α1-α2-α3-Fv fusion
Kd (His-avitag-natural NKG2D [1]): 0.746 nM
koff (His-avitag-natural NKG2D [1]): 2.76e-05 s⁻¹
kon (His-avitag-natural NKG2D [1]): 37000 M⁻¹ s⁻¹

B6: MICwed-Fv (designed binder)
chain: EPHSLRYNLTVLSWDGSVQSGFLTEVHLDGQPFLRCDRQKCRAKPQGQWAEDVLGNKTWDRETRDLTGWGKDLRMTLAHIKDQKEGLHSLQEIRVCEIHEDNSTRSSQHFYYDGELFLSQNLETKEWTMPQSSRAQTLAMNVRNFLKEDAMETDTHYHAMHADCLQELRRYLKSGVVLRRTVPPMVQVTRSEASGGSGDRVTITCRASQDVSTAVAWYQQKPGKAPKLLIYSASFLYSGVPSRFSGSGSGTDFTLTISSLQPEDFATYYCQQSYTTPPTFGQGTKVEIKGGSSRSSSSGGGGSGGGGEVQLVESGGGLVQPGGSLRLSCAASGFTFTSTGISWVRQAPGKGLEWVGRIYPTNGSTNYADSVKGRFTISADTSKNTAYLQMNSLRAEDTAVYYCARTYGIYDLYVDYTEYVMDYWGQGTLVTVSSGGSSRSSSSGGGGSGGGGDIQMTQSPSSLSASGGSGQITVTCRASGFYPWNITLSWRQDGVSLSHDTQQWGDVLPDGQGTYQTWVATRISQGEEQRFTCYMEHSGQHSTHPVPSGKGSHHHHHH
notes: His-tagged α1-α2-α3-Fv fusion; also called MICwed-Fv run A; MICwed-Fv run B
Kd (His-avitag-natural NKG2D [2]): 15.5 nM
koff (His-avitag-natural NKG2D [2]): 0.00312 s⁻¹
kon (His-avitag-natural NKG2D [2]): 201000 M⁻¹ s⁻¹

B7: ULBP3-α3-iFv.2 (designed binder)
chain: EPHSLWYNFTIIHLPRHGQQWCEVQSQVDQKNFLSYDCGSDKVLSMGHLEEQLYATDAWGKQLEMLREVGQRLRLELADTELEDFTPSGPLTLQVRMSCECEADGYIRGSWQFSFDGRKFLLFDSNNRKWTVVHAGARRMKEKWEKDSGLTTFFKMVSMRDCKSWLRDFLMHRKKRLEPTAPPMVQVTRSEASGGSGDRVTITCRASQDVSTAVAWYQQKPGKAPKLLIYSASFLYSGVPSRFSGSGSGTDFTLTISSLQPEDFATYYCQQSYTTPPTFGQGTKVEIKGGSSRSSSSGGGGSGGGGEVQLVESGGGLVQPGGSLRLSCAASGFTFTSTGISWVRQAPGKGLEWVGRIYPTNGSTNYADSVKGRFTISADTSKNTAYLQMNSLRAEDTAVYYCARTYGIYDLYVDYTEYVMDYWGQGTLVTVSSGGSSRSSSSGGGGSGGGGDIQMTQSPSSLSASGGSGQITVTCRASGFYPWNITLSWRQDGVSLSHDTQQWGDVLPDGQGTYQTWVATRISQGEEQRFTCYMEHSGQHSTHPVPSGKGSHHHHHH
notes: His-tagged, monomeric, insect cells; also called NKG2DL-α3-iFv.2 (ULBP3)
binding result (human NKG2D-Fc): binds
